The supplement of paper PMC10065799, “High-throughput profiling of sequence recognition by tyrosine kinases and SH2 domains using bacterial peptide display” (eLife, 2023)

Tests used:
[1] = system: AncSZ; assay: phosphorylation enrichment, bacterial display (enrichment ratio); higher = better substrate or ligand; peptides without Tyr show the background
[2] = molecular target: EPHB1 (UniProt P54762); assay: as above
[3] = molecular target: EPHB2 (UniProt P29323); assay: as above
[4] = molecular target: FGFR1 (UniProt P11362); assay: as above
Sequence of FGFR1 (P11362 whole entry, looked up): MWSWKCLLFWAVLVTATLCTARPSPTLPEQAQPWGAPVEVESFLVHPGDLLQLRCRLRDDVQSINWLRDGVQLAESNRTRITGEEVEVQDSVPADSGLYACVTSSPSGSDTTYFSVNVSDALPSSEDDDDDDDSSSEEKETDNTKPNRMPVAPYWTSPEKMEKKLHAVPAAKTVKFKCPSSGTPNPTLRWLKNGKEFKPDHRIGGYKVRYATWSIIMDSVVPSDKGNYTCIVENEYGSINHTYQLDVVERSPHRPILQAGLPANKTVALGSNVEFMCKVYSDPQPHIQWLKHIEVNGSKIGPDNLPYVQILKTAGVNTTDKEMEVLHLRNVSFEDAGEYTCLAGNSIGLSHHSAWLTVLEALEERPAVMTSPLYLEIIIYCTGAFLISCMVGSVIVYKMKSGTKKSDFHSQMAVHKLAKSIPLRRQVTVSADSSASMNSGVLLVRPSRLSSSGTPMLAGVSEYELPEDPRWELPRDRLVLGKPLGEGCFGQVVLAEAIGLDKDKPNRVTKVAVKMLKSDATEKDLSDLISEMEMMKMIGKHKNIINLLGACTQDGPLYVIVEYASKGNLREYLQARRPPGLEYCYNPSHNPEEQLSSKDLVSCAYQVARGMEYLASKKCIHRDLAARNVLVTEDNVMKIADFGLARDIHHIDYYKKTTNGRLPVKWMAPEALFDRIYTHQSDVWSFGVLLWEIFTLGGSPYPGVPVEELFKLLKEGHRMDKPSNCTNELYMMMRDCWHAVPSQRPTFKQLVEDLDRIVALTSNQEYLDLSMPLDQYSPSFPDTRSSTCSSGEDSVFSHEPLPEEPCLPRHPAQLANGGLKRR

[5] = molecular target: FGFR3 (UniProt P22607); assay: as above
[6] = system: Fer (mouse); assay: as above
[7] = molecular target: Fes (UniProt P07332); assay: as above
Sequence of Fes (P07332 whole entry, looked up): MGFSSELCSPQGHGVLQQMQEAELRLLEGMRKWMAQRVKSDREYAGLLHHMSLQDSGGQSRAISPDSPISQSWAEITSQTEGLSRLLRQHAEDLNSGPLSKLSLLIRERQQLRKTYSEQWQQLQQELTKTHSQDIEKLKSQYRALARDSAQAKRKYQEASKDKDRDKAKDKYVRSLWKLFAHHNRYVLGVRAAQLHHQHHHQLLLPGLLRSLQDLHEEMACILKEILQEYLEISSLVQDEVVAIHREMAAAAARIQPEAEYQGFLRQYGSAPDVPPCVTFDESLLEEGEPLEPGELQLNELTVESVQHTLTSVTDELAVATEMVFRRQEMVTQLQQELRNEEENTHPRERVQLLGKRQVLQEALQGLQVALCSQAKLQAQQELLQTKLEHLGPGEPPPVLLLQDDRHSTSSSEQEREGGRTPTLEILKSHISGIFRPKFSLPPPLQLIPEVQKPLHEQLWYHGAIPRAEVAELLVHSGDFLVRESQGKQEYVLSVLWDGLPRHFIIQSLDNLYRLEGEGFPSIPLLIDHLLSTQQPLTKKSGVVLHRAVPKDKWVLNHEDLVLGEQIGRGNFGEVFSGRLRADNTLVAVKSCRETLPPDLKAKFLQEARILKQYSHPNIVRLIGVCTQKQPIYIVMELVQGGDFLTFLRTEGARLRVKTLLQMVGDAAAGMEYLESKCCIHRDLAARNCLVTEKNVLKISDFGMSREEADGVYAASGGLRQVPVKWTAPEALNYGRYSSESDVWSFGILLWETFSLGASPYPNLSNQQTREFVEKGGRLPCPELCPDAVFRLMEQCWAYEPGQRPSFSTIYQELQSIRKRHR

[8] = molecular target: Fyn (UniProt P06241); assay: as above
[9] = molecular target: Hck (UniProt P08631); assay: as above
[10] = molecular target: Jak2 (UniProt O60674); assay: as above
Sequence of Jak2 (O60674 whole entry, looked up): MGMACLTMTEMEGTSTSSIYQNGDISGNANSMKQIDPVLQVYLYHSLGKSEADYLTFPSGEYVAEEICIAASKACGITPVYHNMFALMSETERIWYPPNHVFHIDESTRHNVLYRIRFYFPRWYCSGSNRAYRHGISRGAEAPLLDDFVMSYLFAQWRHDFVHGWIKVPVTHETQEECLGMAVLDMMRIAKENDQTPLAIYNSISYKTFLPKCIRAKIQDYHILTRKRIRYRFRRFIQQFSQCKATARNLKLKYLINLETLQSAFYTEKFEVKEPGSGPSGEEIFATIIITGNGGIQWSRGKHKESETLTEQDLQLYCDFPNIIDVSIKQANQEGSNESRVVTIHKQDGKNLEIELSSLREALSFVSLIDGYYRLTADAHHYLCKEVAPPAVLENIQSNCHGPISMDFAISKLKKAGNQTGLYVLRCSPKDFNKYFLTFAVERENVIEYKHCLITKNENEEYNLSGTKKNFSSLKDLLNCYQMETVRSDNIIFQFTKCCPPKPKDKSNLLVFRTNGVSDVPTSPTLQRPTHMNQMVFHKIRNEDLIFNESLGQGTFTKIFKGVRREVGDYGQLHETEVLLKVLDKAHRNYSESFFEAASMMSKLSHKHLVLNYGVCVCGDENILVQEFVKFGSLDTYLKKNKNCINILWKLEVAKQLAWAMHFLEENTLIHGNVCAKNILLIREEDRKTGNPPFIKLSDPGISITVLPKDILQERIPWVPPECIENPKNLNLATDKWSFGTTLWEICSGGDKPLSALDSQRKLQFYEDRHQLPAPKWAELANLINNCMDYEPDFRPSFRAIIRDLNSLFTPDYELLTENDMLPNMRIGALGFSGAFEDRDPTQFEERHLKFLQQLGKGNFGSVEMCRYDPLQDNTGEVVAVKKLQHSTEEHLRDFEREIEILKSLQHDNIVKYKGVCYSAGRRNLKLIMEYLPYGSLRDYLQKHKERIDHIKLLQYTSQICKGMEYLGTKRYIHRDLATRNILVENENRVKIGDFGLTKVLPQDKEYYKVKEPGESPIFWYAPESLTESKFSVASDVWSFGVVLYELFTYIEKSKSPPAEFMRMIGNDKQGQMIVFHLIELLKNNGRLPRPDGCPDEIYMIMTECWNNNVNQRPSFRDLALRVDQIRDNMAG

[11] = molecular target: MERTK (UniProt Q12866); assay: as above
Sequence of MERTK (Q12866 whole entry, looked up): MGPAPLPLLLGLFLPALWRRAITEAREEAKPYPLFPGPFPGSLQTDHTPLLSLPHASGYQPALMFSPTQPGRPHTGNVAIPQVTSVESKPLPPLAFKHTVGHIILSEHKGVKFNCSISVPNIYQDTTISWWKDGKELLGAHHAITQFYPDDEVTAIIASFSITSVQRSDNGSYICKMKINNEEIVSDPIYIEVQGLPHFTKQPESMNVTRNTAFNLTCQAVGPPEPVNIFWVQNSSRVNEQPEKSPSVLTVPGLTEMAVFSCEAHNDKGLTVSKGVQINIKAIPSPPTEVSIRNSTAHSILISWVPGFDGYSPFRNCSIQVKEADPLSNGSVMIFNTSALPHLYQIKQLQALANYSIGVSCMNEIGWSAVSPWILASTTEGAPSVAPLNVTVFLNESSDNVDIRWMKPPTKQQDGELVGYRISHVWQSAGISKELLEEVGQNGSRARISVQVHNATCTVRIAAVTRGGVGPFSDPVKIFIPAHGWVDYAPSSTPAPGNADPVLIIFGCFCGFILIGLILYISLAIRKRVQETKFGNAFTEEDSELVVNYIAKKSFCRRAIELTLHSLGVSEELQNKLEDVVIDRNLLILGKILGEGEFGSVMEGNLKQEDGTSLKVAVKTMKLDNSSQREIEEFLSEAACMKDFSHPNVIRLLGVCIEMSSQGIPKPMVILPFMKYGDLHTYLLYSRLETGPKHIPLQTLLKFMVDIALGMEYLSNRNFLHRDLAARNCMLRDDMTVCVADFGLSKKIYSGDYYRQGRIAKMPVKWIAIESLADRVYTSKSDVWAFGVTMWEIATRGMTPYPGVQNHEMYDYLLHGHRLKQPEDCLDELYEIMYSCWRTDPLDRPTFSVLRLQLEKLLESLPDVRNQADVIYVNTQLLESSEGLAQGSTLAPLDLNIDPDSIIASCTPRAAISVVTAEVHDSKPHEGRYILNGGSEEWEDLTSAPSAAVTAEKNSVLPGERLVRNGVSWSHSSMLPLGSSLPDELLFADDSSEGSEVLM

[12] = system: c-Abl (mouse); assay: as above
[13] = system: c-Src; assay: as above
[14] = molecular target: Grb2 SH2 (UniProt P62993); assay: SH2 binding enrichment of the phosphorylated peptide, bacterial display (enrichment ratio); higher = better substrate or ligand; peptides without Tyr show the background
Sequence of Grb2 SH2 (P62993 whole entry, looked up): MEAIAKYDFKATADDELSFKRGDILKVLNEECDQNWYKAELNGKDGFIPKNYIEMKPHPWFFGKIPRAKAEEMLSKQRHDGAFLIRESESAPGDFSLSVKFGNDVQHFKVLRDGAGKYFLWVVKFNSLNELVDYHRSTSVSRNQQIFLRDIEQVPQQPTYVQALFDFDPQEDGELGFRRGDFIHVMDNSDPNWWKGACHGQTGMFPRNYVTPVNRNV

[15] = molecular target: SHP2-C SH2; assay: as above
[16] = molecular target: c-Src SH2; assay: as above
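For SH2 binding enrichment of the phosphorylated peptide, bacterial display in this document: peptide library displayed on the E. coli surface as eCPX fusions, selected cells deep-sequenced, score is each peptide's frequency after selection divided by its frequency in the input.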
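For phosphorylation enrichment, bacterial display in this document: 11-residue human phosphosite peptides and single-mutation variants displayed on the E. coli surface, counted by deep sequencing, each peptide's frequency after selection divided by its frequency in the unselected input library; frequency after pTyr selection over input frequency; kinase dosed for 20-30% of maximal phosphorylation in three min.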

Sequence of EPHB1 (P54762 whole entry, looked up): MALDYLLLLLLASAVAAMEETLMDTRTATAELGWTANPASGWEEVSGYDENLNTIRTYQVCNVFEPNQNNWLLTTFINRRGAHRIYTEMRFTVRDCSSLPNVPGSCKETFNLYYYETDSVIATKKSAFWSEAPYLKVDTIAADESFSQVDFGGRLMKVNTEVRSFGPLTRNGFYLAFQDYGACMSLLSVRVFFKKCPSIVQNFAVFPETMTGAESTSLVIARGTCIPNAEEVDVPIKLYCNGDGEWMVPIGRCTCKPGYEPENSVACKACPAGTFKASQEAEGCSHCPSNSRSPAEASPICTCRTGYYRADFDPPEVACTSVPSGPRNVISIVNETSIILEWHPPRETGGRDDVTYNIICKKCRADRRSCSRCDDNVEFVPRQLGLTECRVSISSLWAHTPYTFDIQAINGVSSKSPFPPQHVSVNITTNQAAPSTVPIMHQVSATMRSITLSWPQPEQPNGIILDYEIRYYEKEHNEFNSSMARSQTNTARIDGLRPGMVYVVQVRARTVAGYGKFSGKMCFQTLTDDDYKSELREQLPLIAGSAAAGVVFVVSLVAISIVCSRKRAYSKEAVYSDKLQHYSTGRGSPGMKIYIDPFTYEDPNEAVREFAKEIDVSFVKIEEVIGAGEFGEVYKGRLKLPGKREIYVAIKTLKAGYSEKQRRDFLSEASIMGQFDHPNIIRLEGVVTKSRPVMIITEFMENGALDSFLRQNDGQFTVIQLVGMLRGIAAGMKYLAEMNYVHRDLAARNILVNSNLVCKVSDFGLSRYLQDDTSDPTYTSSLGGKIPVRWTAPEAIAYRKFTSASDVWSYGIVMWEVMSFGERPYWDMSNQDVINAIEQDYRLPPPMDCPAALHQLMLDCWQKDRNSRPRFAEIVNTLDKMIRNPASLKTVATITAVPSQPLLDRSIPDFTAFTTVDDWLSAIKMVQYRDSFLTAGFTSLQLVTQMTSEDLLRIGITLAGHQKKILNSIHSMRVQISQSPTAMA

NNIDYYKNTTN [FGFR2_Y657_K659N]
phosphorylation enrichment [1]: 0.756 | phosphorylation enrichment [2]: 0.359 | phosphorylation enrichment [3]: 0.473 | phosphorylation enrichment [4]: 0.552 | phosphorylation enrichment [5]: 0.605 | phosphorylation enrichment [6]: 0.648 | phosphorylation enrichment [7]: 0.745 | phosphorylation enrichment [8]: 0.417 | phosphorylation enrichment [9]: 0.512 | phosphorylation enrichment [10]: 0.596 | phosphorylation enrichment [11]: 0.32 | phosphorylation enrichment [12]: 0.446 | phosphorylation enrichment [13]: 0.387 | SH2 binding enrichment [14]: 1.27 | SH2 binding enrichment [15]: 0.73 | SH2 binding enrichment [16]: 0.546

AKVKPYVNGTS [IBTK_Y1064]
phosphorylation enrichment [1]: 0.606 | phosphorylation enrichment [2]: 0.41 | phosphorylation enrichment [3]: 0.419 | phosphorylation enrichment [4]: 0.421 | phosphorylation enrichment [5]: 0.47 | phosphorylation enrichment [6]: 0.461 | phosphorylation enrichment [7]: 0.559 | phosphorylation enrichment [8]: 0.486 | phosphorylation enrichment [9]: 0.402 | phosphorylation enrichment [10]: 0.58 | phosphorylation enrichment [11]: 0.357 | phosphorylation enrichment [12]: 0.778 | phosphorylation enrichment [13]: 0.412 | SH2 binding enrichment [14]: 1.11 | SH2 binding enrichment [15]: 0.878 | SH2 binding enrichment [16]: 0.559

KFDLMYAKRAF [TUBA1A_Y399]
phosphorylation enrichment [1]: 0.905 | phosphorylation enrichment [2]: 0.535 | phosphorylation enrichment [3]: 0.536 | phosphorylation enrichment [4]: 0.465 | phosphorylation enrichment [5]: 0.589 | phosphorylation enrichment [6]: 0.442 | phosphorylation enrichment [7]: 0.921 | phosphorylation enrichment [8]: 0.434 | phosphorylation enrichment [9]: 0.463 | phosphorylation enrichment [10]: 0.667 | phosphorylation enrichment [11]: 0.414 | phosphorylation enrichment [12]: 0.544 | phosphorylation enrichment [13]: 0.409 | SH2 binding enrichment [14]: 0.802 | SH2 binding enrichment [15]: 0.548 | SH2 binding enrichment [16]: 0.444

FMMMRYSQNVR [SDAD1_Y656]
phosphorylation enrichment [1]: 1.11 | phosphorylation enrichment [2]: 0.614 | phosphorylation enrichment [3]: 0.626 | phosphorylation enrichment [4]: 0.432 | phosphorylation enrichment [5]: 0.782 | phosphorylation enrichment [6]: 0.58 | phosphorylation enrichment [7]: 1.04 | phosphorylation enrichment [8]: 0.424 | phosphorylation enrichment [9]: 0.475 | phosphorylation enrichment [10]: 0.939 | phosphorylation enrichment [11]: 0.493 | phosphorylation enrichment [12]: 0.701 | phosphorylation enrichment [13]: 0.365 | SH2 binding enrichment [14]: 1.52 | SH2 binding enrichment [15]: 1.43 | SH2 binding enrichment [16]: 1.03

YIGVTYKNEED [PDGFRA_Y993]
phosphorylation enrichment [1]: 1 | phosphorylation enrichment [2]: 0.602 | phosphorylation enrichment [3]: 0.539 | phosphorylation enrichment [4]: 0.71 | phosphorylation enrichment [5]: 0.822 | phosphorylation enrichment [6]: 0.555 | phosphorylation enrichment [7]: 1.05 | phosphorylation enrichment [8]: 0.528 | phosphorylation enrichment [9]: 0.509 | phosphorylation enrichment [10]: 0.961 | phosphorylation enrichment [11]: 0.433 | phosphorylation enrichment [12]: 0.666 | phosphorylation enrichment [13]: 0.461 | SH2 binding enrichment [14]: 1.35 | SH2 binding enrichment [15]: 1.52 | SH2 binding enrichment [16]: 1.89

KIITDYYVDMK [MPP4_Y566_V562I]
phosphorylation enrichment [1]: 1.09 | phosphorylation enrichment [2]: 1.56 | phosphorylation enrichment [3]: 0.718 | phosphorylation enrichment [4]: 4.12 | phosphorylation enrichment [5]: 2.6 | phosphorylation enrichment [6]: 0.482 | phosphorylation enrichment [7]: 0.941 | phosphorylation enrichment [8]: 0.55 | phosphorylation enrichment [9]: 0.449 | phosphorylation enrichment [10]: 1.22 | phosphorylation enrichment [11]: 0.547 | phosphorylation enrichment [12]: 0.677 | phosphorylation enrichment [13]: 0.517 | SH2 binding enrichment [14]: 0.861 | SH2 binding enrichment [15]: 0.82 | SH2 binding enrichment [16]: 3.04

LRKQDYQEILD [SLC35G2_Y403]
phosphorylation enrichment [1]: 0.995 | phosphorylation enrichment [2]: 0.632 | phosphorylation enrichment [3]: 0.379 | phosphorylation enrichment [4]: 0.629 | phosphorylation enrichment [5]: 0.708 | phosphorylation enrichment [6]: 0.434 | phosphorylation enrichment [7]: 1.17 | phosphorylation enrichment [8]: 0.529 | phosphorylation enrichment [9]: 0.47 | phosphorylation enrichment [10]: 0.999 | phosphorylation enrichment [11]: 0.364 | phosphorylation enrichment [12]: 0.629 | phosphorylation enrichment [13]: 0.468 | SH2 binding enrichment [14]: 0.82 | SH2 binding enrichment [15]: 0.606 | SH2 binding enrichment [16]: 6.76

AELVPYYMEHH [PTPN11_Y80_Q79P]
phosphorylation enrichment [1]: 0.916 | phosphorylation enrichment [2]: 0.778 | phosphorylation enrichment [3]: 0.635 | phosphorylation enrichment [4]: 0.822 | phosphorylation enrichment [5]: 0.792 | phosphorylation enrichment [6]: 0.513 | phosphorylation enrichment [7]: 0.995 | phosphorylation enrichment [8]: 0.626 | phosphorylation enrichment [9]: 0.736 | phosphorylation enrichment [10]: 0.757 | phosphorylation enrichment [11]: 0.552 | phosphorylation enrichment [12]: 0.733 | phosphorylation enrichment [13]: 1.28 | SH2 binding enrichment [14]: 0.963 | SH2 binding enrichment [15]: 1.49 | SH2 binding enrichment [16]: 1.19

WFPYTYVEEDE [VAV3_Y842_S840Y]
phosphorylation enrichment [1]: 1.47 | phosphorylation enrichment [2]: 1.16 | phosphorylation enrichment [3]: 0.773 | phosphorylation enrichment [4]: 1.56 | phosphorylation enrichment [5]: 1.72 | phosphorylation enrichment [6]: 0.899 | phosphorylation enrichment [7]: 1.3 | phosphorylation enrichment [8]: 0.843 | phosphorylation enrichment [9]: 0.616 | phosphorylation enrichment [10]: 1.08 | phosphorylation enrichment [11]: 0.625 | phosphorylation enrichment [12]: 0.746 | phosphorylation enrichment [13]: 1.3 | SH2 binding enrichment [14]: 0.879 | SH2 binding enrichment [15]: 1.91 | SH2 binding enrichment [16]: 3.92

SVMAEYGLYGA [VSX2_Y219]
phosphorylation enrichment [1]: 0.709 | phosphorylation enrichment [2]: 0.732 | phosphorylation enrichment [3]: 1.53 | phosphorylation enrichment [4]: 0.529 | phosphorylation enrichment [5]: 0.57 | phosphorylation enrichment [6]: 3.74 | phosphorylation enrichment [7]: 0.882 | phosphorylation enrichment [8]: 6.65 | phosphorylation enrichment [9]: 6.45 | phosphorylation enrichment [10]: 0.59 | phosphorylation enrichment [11]: 0.502 | phosphorylation enrichment [12]: 0.628 | phosphorylation enrichment [13]: 4.66 | SH2 binding enrichment [14]: 0.908 | SH2 binding enrichment [15]: 0.609 | SH2 binding enrichment [16]: 0.593

HKANEYFPVVL [ADAMTS18_Y764_YF]
phosphorylation enrichment [1]: 0.872 | phosphorylation enrichment [2]: 0.951 | phosphorylation enrichment [3]: 1.5 | phosphorylation enrichment [4]: 8.42 | phosphorylation enrichment [5]: 4.38 | phosphorylation enrichment [6]: 0.736 | phosphorylation enrichment [7]: 0.896 | phosphorylation enrichment [8]: 0.807 | phosphorylation enrichment [9]: 0.533 | phosphorylation enrichment [10]: 1.83 | phosphorylation enrichment [11]: 0.528 | phosphorylation enrichment [12]: 0.628 | phosphorylation enrichment [13]: 0.556 | SH2 binding enrichment [14]: 0.963 | SH2 binding enrichment [15]: 0.53 | SH2 binding enrichment [16]: 0.462

QITQVYGFYDE [PPP2CA_Y127]
phosphorylation enrichment [1]: 1.24 | phosphorylation enrichment [2]: 0.716 | phosphorylation enrichment [3]: 1.12 | phosphorylation enrichment [4]: 0.615 | phosphorylation enrichment [5]: 1.27 | phosphorylation enrichment [6]: 1.3 | phosphorylation enrichment [7]: 1.21 | phosphorylation enrichment [8]: 9.45 | phosphorylation enrichment [9]: 3.7 | phosphorylation enrichment [10]: 1.06 | phosphorylation enrichment [11]: 1.58 | phosphorylation enrichment [12]: 1.01 | phosphorylation enrichment [13]: 6.85 | SH2 binding enrichment [14]: 0.867 | SH2 binding enrichment [15]: 0.693 | SH2 binding enrichment [16]: 1.72

KNAEKYAEEDR [HSPA9_Y568]
phosphorylation enrichment [1]: 1.08 | phosphorylation enrichment [2]: 0.506 | phosphorylation enrichment [3]: 0.506 | phosphorylation enrichment [4]: 0.47 | phosphorylation enrichment [5]: 0.709 | phosphorylation enrichment [6]: 0.499 | phosphorylation enrichment [7]: 1.1 | phosphorylation enrichment [8]: 0.528 | phosphorylation enrichment [9]: 0.571 | phosphorylation enrichment [10]: 0.822 | phosphorylation enrichment [11]: 0.444 | phosphorylation enrichment [12]: 0.674 | phosphorylation enrichment [13]: 0.411 | SH2 binding enrichment [14]: 0.992 | SH2 binding enrichment [15]: 0.819 | SH2 binding enrichment [16]: 0.624

KITVIYDGACQ [VWDE_Y1035]
phosphorylation enrichment [1]: 1.1 | phosphorylation enrichment [2]: 0.599 | phosphorylation enrichment [3]: 0.664 | phosphorylation enrichment [4]: 0.438 | phosphorylation enrichment [5]: 0.778 | phosphorylation enrichment [6]: 0.574 | phosphorylation enrichment [7]: 1.28 | phosphorylation enrichment [8]: 0.51 | phosphorylation enrichment [9]: 0.711 | phosphorylation enrichment [10]: 1.14 | phosphorylation enrichment [11]: 0.437 | phosphorylation enrichment [12]: 0.837 | phosphorylation enrichment [13]: 0.721 | SH2 binding enrichment [14]: 0.697 | SH2 binding enrichment [15]: 0.486 | SH2 binding enrichment [16]: 0.479

RLQEGYDHSFF [ESD_Y258_YF]
phosphorylation enrichment [1]: 1.12 | phosphorylation enrichment [2]: 0.457 | phosphorylation enrichment [3]: 0.364 | phosphorylation enrichment [4]: 0.52 | phosphorylation enrichment [5]: 0.57 | phosphorylation enrichment [6]: 0.422 | phosphorylation enrichment [7]: 0.794 | phosphorylation enrichment [8]: 0.427 | phosphorylation enrichment [9]: 0.508 | phosphorylation enrichment [10]: 0.85 | phosphorylation enrichment [11]: 0.538 | phosphorylation enrichment [12]: 0.728 | phosphorylation enrichment [13]: 0.824 | SH2 binding enrichment [14]: 1.1 | SH2 binding enrichment [15]: 0.622 | SH2 binding enrichment [16]: 1.01

FNVLQYVVPEV [EIF3A_Y382]
phosphorylation enrichment [1]: 1.88 | phosphorylation enrichment [2]: 0.933 | phosphorylation enrichment [3]: 1.02 | phosphorylation enrichment [4]: 2.06 | phosphorylation enrichment [5]: 1.85 | phosphorylation enrichment [6]: 0.701 | phosphorylation enrichment [7]: 1.32 | phosphorylation enrichment [8]: 0.629 | phosphorylation enrichment [9]: 0.635 | phosphorylation enrichment [10]: 1.55 | phosphorylation enrichment [11]: 1.99 | phosphorylation enrichment [12]: 5.16 | phosphorylation enrichment [13]: 0.58 | SH2 binding enrichment [14]: 0.835 | SH2 binding enrichment [15]: 0.963 | SH2 binding enrichment [16]: 0.599

SVVVPYEQPEV [TP53_Y220_P222Q]
phosphorylation enrichment [1]: 1.37 | phosphorylation enrichment [2]: 0.652 | phosphorylation enrichment [3]: 0.715 | phosphorylation enrichment [4]: 0.604 | phosphorylation enrichment [5]: 0.774 | phosphorylation enrichment [6]: 0.568 | phosphorylation enrichment [7]: 1.28 | phosphorylation enrichment [8]: 0.532 | phosphorylation enrichment [9]: 0.612 | phosphorylation enrichment [10]: 1.24 | phosphorylation enrichment [11]: 0.544 | phosphorylation enrichment [12]: 1.03 | phosphorylation enrichment [13]: 0.69 | SH2 binding enrichment [14]: 0.962 | SH2 binding enrichment [15]: 0.856 | SH2 binding enrichment [16]: 3.08
